# Experimental data reported in IntAct's records for PubMed 16946707.
# B1: Dynamin-1 (Homo sapiens), Q05193 (parent)
# chain: MGNRGMEDLIPLVNRLQDAFSAIGQNADLDLPQIAVVGGQSAGKSSVLENFVGRDFLPRGSGIVTRRPLVLQLVNATTEYAEFLHCKGKKFTDFEEVRLEIEAETDRVTGTNKGISPVPINLRVYSPHVLNLTLVDLPGMTKVPVGDQPPDIEFQIRDMLMQFVTKENCLILAVSPANSDLANSDALKVAKEVDPQGQRTIGVITKLDLMDEGTDARDVLENKLLPLRRGYIGVVNRSQKDIDGKKDITAALAAERKFFLSHPSYRHLADRMGTPYLQKVLNQQLTNHIRDTLPGLRNKLQSQLLSIEKEVEEYKNFRPDDPARKTKALLQMVQQFAVDFEKRIEGSGDQIDTYELSGGARINRIFHERFPFELVKMEFDEKELRREISYAIKNIHGIRTGLFTPDMAFETIVKKQVKKIREPCLKCVDMVISELISTVRQCTKKLQQYPRLREEMERIVTTHIREREGRTKEQVMLLIDIELAYMNTNHEDFIGFANAQQRSNQMNKKKTSGNQDEILVIRKGWLTINNIGIMKGGSKEYWFVLTAENLSWYKDDEEKEKKYMLSVDNLKLRDVEKGFMSSKHIFALFNTEQRNVYKDYRQLELACETQEEVDSWKASFLRAGVYPERVGDKEKASETEENGSDSFMHSMDPQLERQVETIRNLVDSYMAIVNKTVRDLMPKTIMHLMINNTKEFIFSELLANLYSCGDQNTLMEESAEQAQRRDEMLRMYHALKEALSIIGDINTTTVSTPMPPPVDDSWLQVQSVPAGRRSPTSSPTPQRRAPAVPPARPGSRGPAPGPPPAGSALGGAPPVPSRPGASPDPFGPPPQVPSRPNRAPPGVPSRSGQASPSRPESPRPPFDL
# partner: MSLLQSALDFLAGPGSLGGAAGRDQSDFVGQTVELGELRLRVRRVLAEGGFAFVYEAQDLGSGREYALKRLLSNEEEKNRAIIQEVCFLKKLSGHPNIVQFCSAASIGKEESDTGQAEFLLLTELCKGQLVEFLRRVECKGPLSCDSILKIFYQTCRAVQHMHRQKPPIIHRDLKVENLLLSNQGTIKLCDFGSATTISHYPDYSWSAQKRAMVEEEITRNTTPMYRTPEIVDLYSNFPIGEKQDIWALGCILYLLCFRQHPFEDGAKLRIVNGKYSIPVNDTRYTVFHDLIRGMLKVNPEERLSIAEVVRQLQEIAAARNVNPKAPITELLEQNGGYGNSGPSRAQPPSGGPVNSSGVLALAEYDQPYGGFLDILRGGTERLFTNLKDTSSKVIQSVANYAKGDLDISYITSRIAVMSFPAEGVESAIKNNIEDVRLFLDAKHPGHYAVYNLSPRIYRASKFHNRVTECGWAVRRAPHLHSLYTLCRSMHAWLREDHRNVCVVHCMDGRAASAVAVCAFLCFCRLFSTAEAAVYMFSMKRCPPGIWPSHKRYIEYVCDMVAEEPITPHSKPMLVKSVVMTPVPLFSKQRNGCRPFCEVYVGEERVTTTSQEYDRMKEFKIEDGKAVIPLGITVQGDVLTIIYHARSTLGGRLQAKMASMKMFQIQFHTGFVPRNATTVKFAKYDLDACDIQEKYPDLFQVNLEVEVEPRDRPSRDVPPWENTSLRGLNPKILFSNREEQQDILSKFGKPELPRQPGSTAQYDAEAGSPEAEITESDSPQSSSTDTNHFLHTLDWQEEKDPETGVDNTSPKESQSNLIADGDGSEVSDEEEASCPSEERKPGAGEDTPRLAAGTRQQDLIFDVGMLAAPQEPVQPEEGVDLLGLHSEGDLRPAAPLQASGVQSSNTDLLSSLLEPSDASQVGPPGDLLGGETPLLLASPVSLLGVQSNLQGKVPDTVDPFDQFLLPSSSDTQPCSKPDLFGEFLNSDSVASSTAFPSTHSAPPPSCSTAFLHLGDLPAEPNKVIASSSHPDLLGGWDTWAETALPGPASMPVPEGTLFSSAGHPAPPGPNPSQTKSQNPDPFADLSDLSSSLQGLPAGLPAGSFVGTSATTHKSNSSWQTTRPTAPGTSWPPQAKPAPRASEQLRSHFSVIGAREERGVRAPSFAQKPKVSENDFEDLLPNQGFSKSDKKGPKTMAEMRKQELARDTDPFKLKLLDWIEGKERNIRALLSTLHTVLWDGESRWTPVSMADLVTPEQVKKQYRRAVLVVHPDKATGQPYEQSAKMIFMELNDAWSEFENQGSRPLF
# Variants of: B1
# Conditions: with gak_rat Gak
row,effect of a mutation on the interaction,Variant
1,disrupting interaction,I690K
2,increasing interaction,K694A
